Measurements published in article PMC6430397, “The pharmacological properties of 3-arm or 4-arm DOTA constructs for conjugation to α-melanocyte-stimulating hormone analogues for melanoma imaging” (PLoS ONE, 2019).

Assay: Stability analysis in plasma, liver and kidney of mice, ex vivo TLC
Set-up: species or system mouse
Settings: γ-counter, mean ± SD, n = 3 mice; for Fraction ratio of intact radiotracer, Plasma (%): B16-F1-bearing C57BL6 mice; for Fraction ratio of intact radiotracer, Plasma (%) / Fraction ratio of intact radiotracer, Liver (%): reverse-phase TLC; for Fraction ratio of intact radiotracer, Liver (%): liver homogenate
Protocol: All animal studies were conducted following approval by the Animal Care Committee of Kanazawa University (AP-122339). Fasted B16-F1-bearing C57BL6 male mice (5 weeks old) were administered ^111In-labeled 3-arm or 4-arm DOTA-α-MSH (3.7 MBq/mouse) via the tail vein. At 10, 30, 60, 120, and 180 min after injection, mice (n = 3 per time point) were euthanized with isoflurane, and blood and liver were collected and analyzed with thin layer chromatography (TLC). Briefly, 300 uL blood in a heparinized tube was centrifuged at 18,000 ×g at 4°C for 5 min. A total of 30 uL perchloric acid was added to the supernatant, which was centrifuged again, after which the final supernatant was spotted onto the TLC plate as plasma. Krebs-Ringer phosphate buffer (pH 7.4) was added to the liver samples, followed by homogenization with an ultrasonic homogenizer (SONIFIER250, Branson, MO, USA). Then, ethanol was added to the homogenate to remove proteins, and the sample was centrifuged at 18,000 ×g at 4°C for 5 min. The final supernatant was spotted onto the reverse-phase TLC plate, and the TLC spots were developed using 50 mM EDTA (pH 4–5) solvents. After development and complete drying, the TLC plates were cut into 21 fractions, and the radioactivity associated with each fraction was quantified using a γ-ray counter. The fraction ratios of ^111In^3+, ^111In-labeled 3-arm or 4-arm DOTA-α-MSH, and all metabolites were calculated by dividing the radioactive counts for each fraction by the total radioactivity counts.

[1] = 10 min after i.v. injection 3.7 MBq/mouse
[2] = 30 min after i.v. injection 3.7 MBq/mouse
[3] = 60 min after i.v. injection 3.7 MBq/mouse
[4] = 120 min after i.v. injection 3.7 MBq/mouse
[5] = 180 min after i.v. injection 3.7 MBq/mouse

With CSCC[C@H](NC(=O)[C@H](CO)NC(=O)[C@H](Cc1ccc(O)cc1)NC(=O)[C@H](CO)NC(C)=O)C(=O)N[C@@H](CCC(=O)O)C(=O)N[C@@H](Cc1c[nH]cn1)C(=O)N[C@@H](Cc1ccccc1)C(=O)N[C@@H](CCCNC(=N)N)C(=O)N[C@@H](Cc1c[nH]c2ccccc12)C(=O)NCC(=O)N[C@@H](CCCCNC(=S)Nc1ccc(C[C@H]2CN(CC(=O)O)CCN(CC(=O)O)CCN(CC(=O)O)CCN2CC(=O)O)cc1)C(=O)N1CCC[C@H]1C(=O)N[C@H](C(=O)O)C(C)C [^111In-labeled 4-arm DOTA-α-MSH, metal not drawn] the “Fraction ratio of intact radiotracer, Plasma (%)” value (from here on “Fraction ratio … Plasma (%)”) [1] was 96.0 ± 2.5%, the “Fraction ratio of intact radiotracer, Liver (%)” value (from here on “Fraction ratio … Liver (%)”) [1] was 95.1 ± 2.9% and the “Fraction ratio … Plasma (%)” value [2] was 95.8 ± 2.6%. For the same molecule, the “Fraction ratio of intact radiotracer, Kidney (%)” value (30 min after i.v. injection 3.7 MBq/mouse, kidney, TLC) was 95.8 ± 1.9%, the “Fraction ratio … Liver (%)” value [2] was 94.9 ± 2.1% and the “Fraction ratio … Plasma (%)” value [3] was 92.1 ± 2.1%. For the same molecule, the “Fraction ratio … Liver (%)” value [3] was 91.3 ± 3.2%, the “Fraction ratio … Plasma (%)” value [4] was 84.2 ± 2.2% and the “Fraction ratio … Liver (%)” value [4] was 78.6 ± 4.9%. The “Fraction ratio … Plasma (%)” value [5] was 80.8 ± 2.3% and the “Fraction ratio … Liver (%)” value [5] was 76.2 ± 4.1%.
